B1: β-body (3) TFTFTFPGLTRTHT (SEQ ID NO: 59) (designed binder)
peptide: TFTFTFPGLTRTHT
modifications: also: with a fluorescent probe, place not given here
notes: The text calls it a modified version of (2); also called fluorescent-(3)
B2: β-body KTGTQNLTGPGRTHTQTATEG (SEQ ID NO: 3) (peptide)
peptide: KTGTQNLTGPGRTHTQTATEG
notes: Found from a one-bead-one-compound library K(TX)4PG(XT)4EG
B3: hexapeptide HRMVRG (SEQ ID NO: 4) (peptide)
peptide: HRMVRG-PEGA1900
modifications: reading uncertain
notes: also called HRMVRG-PEGA1900; hexapeptide partner

Ends that are not written are not given here. PEGA1900 = not defined here

The target of assay [1] is T1, β-body (2) TTYTYPGDTFTI (SEQ ID NO: 58) (with a fluorescent probe (2-F*) or on beads, by assay).
T1 construct: the assay field says which was which; also called 2-F*; bead-(2)
T1 peptide: TTYTYPGDTFTI
Nature of the assay: fluorescent β-body on beads modified with (2).

Assay [2] deals with B3. Nature of the assay: pairs of beads of two libraries adhering to each other, identified by MSMS. The protocol:
This example illustrates how to identify a β-body recognizing a linear peptide. A split-mix library of 21.000.000 β-bodies according to the invention were prepared by combinatorial synthesis as described in Example 4 above. This was performed on 100 μm beads with no fluorescence. A second split mix library of 470.000 hexapeptides were prepared in a similar manner except that this library was prepared on larger 400 μm beads with fluorescence label attached to some functional groups. The two libraries were mixed and pairs of beads adhering to each other in pairs with one large fluorescent and one small non-fluorescent bead were collected and the two peptides were identified by MSMS. […] EGFP is an abbreviation of Enhanced Green Fluorescent Protein.

For assay [3], the target named is T2, Enhanced Green Fluorescent Protein (UniProt P42212 1-238 = GFP).
T2 construct: treated as one molecule; also called EGFP; eGFP
Nature of the assay: green fluorescence on HRMVRG-PEGA1900 beads.

In the case of B1, the “fold reduction of binding against fluorescent-(1)” value in assay [1] was 7 fold.

Take B2: in assay [2], the binding result is reported as “binds”. With B3, the binding result in assay [3] is “no binding”.
